Experimental data reported in paper PMC6255772, “Enhanced anti-metastatic bioactivity of an IGF-TRAP re-engineered to improve physicochemical properties” (Scientific Reports, 2018).

Assays:
recombinant human IGF-1 = biological target: T1, recombinant human IGF-1 (Homo sapiens, UniProt P05019); experiment: SPR; Biacore T200, competition in solution: 5 nM hIGF-1 or hIGF-2 incubated 1 h with 0.12-500 nM IGF-TRAP, injected over about 4000 RU MEDI-573 amine-coupled to a CM-5 chip; free ligand read 10 s after end of injection; PBS 0.05% Tween 20, 25 °C; conditions: both partners purified
T1 construct: human insulin-like growth factor 1, recombinant; also called rhIGF-1; hIGF-1; source: bought: Sigma-Aldrich
T1 sequence (P05019 49-118): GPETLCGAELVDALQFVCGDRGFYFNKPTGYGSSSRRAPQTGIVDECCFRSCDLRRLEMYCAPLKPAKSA

recombinant human IGF-2 = biological target: T2, recombinant human IGF-2 (human); experiment: as above; conditions: both partners purified
T2 construct: human insulin-like growth factor 2, recombinant; also called rhIGF-2; hIGF-2; source: bought: Sigma-Aldrich

B1: dusigitumab (MEDI-573) (antibody, V domains shown)
VH: QVQLVQSGAEVKKPGASVKVSCKASGYTFTSYDINWVRQATGQGLEWMGWMNPNSGNTGYAQKFQGRVTMTRNTSISTAYMELSSLRSEDTAVYYCARDPYYYYYGMDVWGQGTTVTVSS
VL: QSVLTQPPSVSAAPGQKVTISCSGSSSNIENNHVSWYQQLPGTAPKLLIYDNNKRPSGIPDRFSGSKSGTSATLGITGLQTGDEADYYCETWDTSLSAGRVFGGGTKLTVL
- binding result (recombinant human IGF-1): binds
- binding result (recombinant human IGF-2): binds
